Data set [1] is described as follows: Heparinase I activity as a function of calcium concentration (K0.5, calcium dependence). The class given is biochemical. As to the method: (§1) Heparinase I Activity Assays: The UV 232 nm assay was used as described in Example 1. When measuring the enzyme activity as a function of heparin concentration, heparin concentrations varied from 0 to 4 mg/ml at a fixed calcium concentration of 5 mM (100 mM MOPS buffer/5 mM calcium acetate, pH 7.0). The data was then fit to an non-linear equation to determine Kcat and Km of heparinases I. Heparinase mutant activity was also investigated as a function of calcium concentration ranging from 0 to 10 mM. […] Activity is expressed as IU-μmol product formed/min using ∈=−3800-M^−1CM^−1.

The nature of data set [2]: Heparinase I UV 232 nm activity assay as a function of heparin concentration (Kcat, Km). Particulars: for Kcat / Km: heparin 0 to 4 mg/ml, 5 mM calcium acetate, pH 7.0; for Kcat: 100 mM MOPS. The class given is biochemical, porcine.
Source text: Heparinase II Activity Assay. Native heparinase II from Flavobacterium heparinum, was purified as described previously (Godavarti, R., and Sasisekharan, R (1996c) Biochem. Biophys. Res. Comm. 229, 770-777). The UV 232 nm assay to quantify native heparinase II enzymatic activity was similar to that reported for heparinase I (Bernstein, H., Yang, V. C., Cooney, C. L., Langer, R. (1988) Meth. Enzym. 137, 515-29). Briefly, the course of the reaction is monitored by measuring the increase in absorbance at 232 nm as a function of time under saturating substrate concentrations. With heparin as the substrate, the reaction was carried out at a concentration of 4 mg/ml in 50 mM sodium phosphate buffer, pH 7.3. With 2 mg/ml heparan sulfate, the reaction was measured in 50 mM sodium phosphate buffer, pH 6.9 (Sasisekharan, R., Moses, M. A., Nugent, M. A., Cooney, C. L., Langer, R. (1994) Proc. Natl. Acad. Sci., USA 91, 1524-1528). The temperature for all enzymatic activity measurements was kept constant at 35° C.
Heparinase I Activity Assay. The UV 232 nm assay to quantify heparinase I enzymatic activity was similar to that described in Example 1. With heparin as the substrate, the reaction was carried out at a concentration of 4 mg/ml in 100 mM MOPS, 5 mM calcium acetate, pH 7.0. The temperature for all enzymatic activity measurements was kept constant at 30° C. For the inactivation kinetic profiles, activity was measured as outlined above at precise time points.
as §1

A short description of data set [3]: Heparin-POROS affinity chromatography. The class given is binding. To be noted: for NaCl: salt concentration at which enzyme elutes from heparin-POROS column, 10 mM Tris, 1 mM EDTA pH 7.0. The procedure:
Heparin-POROS chromatography: About 30-40 μg of -L r-heparinase I and the various mutant enzymes were injected into a heparin POROS (4.6 mm×100) column (PerSeptive BioSystems, Framingham, Mass.) connected to BioCAD system (PerSeptive BioSystems). Proteins were eluted using a linear gradient of […] NaCl in 10 min (10 mM Tris, 1 mM EDTA pH 7.0) and monitored at 210 nm. EDTA was added to chelate any calcium ions that may be present in the buffers.

The nature of data set [4]: Fluorescence competition for calcium with probe rhod-5N. Particulars: apparent dissociation constant of rhod-5N for calcium with 3 μM enzyme; lower Kd′ means less binding of calcium by heparinase I. The procedure: Fluorescence Competition. To determine the effect of mutations in CB-1 and CB-2 on the ability of heparinase I to bind calcium, mutants with a dramatic drop in activity were tested for their ability to bind calcium. To accomplish this, we examined the ability of heparinase I and mutants to compete for free calcium with the calcium-chelating fluorescence probe rhod-5N. The fluorescence probe rhod-5N was dissolved and diluted in buffer A (10 mM MOPS and 100 mM KCl, pH 6.5). Buffer A and the water used in the study were run through a Chelex Resin column to remove trace amounts of calcium. In the absence of calcium, rhod-5N is not fluorescent, however upon binding calcium rhod-5N is fluorescent with an emission λmax of 576 nm. Before titration, rhod-5N and heparinase I were added to a quartz cuvette such that the final concentration of rhod-5N in the cuvette was 0.3 μM and heparinase I is 3 μM. To this solution was added aliquots of a calcium solution (20 mM) which had been previously equilibrated with 0.3 μM rhod-5N and 3 μM heparinase I. The stock was added such that the calcium concentration in the cuvette was 50, 100, 200, 500, 1000, 5000 μM. After allowing the solution to come to equilibrium, the sample was scanned from 560 nm to 600 nm with the excitation wavelength fixed at […]. The plot of I/Imax versus [Ca^++] was fitted to a non-linear equation to determine the apparent Kd (Kd′) value. Thus, Kd′ values represent the apparent dissociation constants for the fluorescence probe rhod-5N. Control samples without heparinase I were included in the study.

The mark [5] stands for this setting: calcium concentration at which half of the maximum enzyme activity was observed, calcium 0 to 10 mM, Table 4 first K0.5 column.

Read-outs that look alike come from different tables or passages of the source.

Broadly, the Km is the concentration of substrate that gives half-maximal velocity.

B1: E381A: heparinase I CB-2 mutant, glutamate 381 changed to alanine (protein, UniProt Q05819 22-384, looked up, variant E381A)
Heparin lyase I: QQKKSGNIPYRVNVQADSAKQKAIIDNKWVAVGINKPYALQYDDKLRFNGKPSYRFELKAEDNSLEGYAAGETKGRTELSYSYATTNDFKKFPPSVYQNAQKLKTVYHYGKGICEQGSSRSYTFSVYIPSSFPDNATTIFAQWHGAPSRTLVATPEGEIKTLSIEEFLALYDRMIFKKNIAHDKVEKKDKDGKITYVAGKPNGWKVEQGGYPTLAFGFSKGYFYIKANSDRQWLTDKADRNNANPENSEVMKPYSSEYKTSTIAYKMPFAQFPKDCWITFDVAIDWTKYGKEANTILKPGKLDVMMTYTKNKKPQKAHIVNQQEILIGRNDDDGYYFKFGIYRVGNSTVPVTYNLSGYSATAR
On to B1, for which the K0.5 in data set [1] (Table 4 second K0.5 column) was 180 µM. Further, in data set [1] (setting [5]), the K0.5 is 180 µM. In data set [2], the “decrease in Kcat compared to wild-type r-heparinase I” value (“decrease in Kcat” for short) is reported as “about 10 fold”, the Kcat amounted to 10 s⁻¹ and the Km was 520 nM. For the same molecule, the NaCl in data set [3] came to 505 mM. Moreover, the Kd in data set [4] was determined as 175 µM.

B2: -L: wild-type recombinant heparinase I expressed without the putative F. heparinum leader sequence (protein, UniProt Q05819 22-384, looked up)
Heparin lyase I: QQKKSGNIPYRVNVQADSAKQKAIIDNKWVAVGINKPYALQYDDKLRFNGKPSYRFELKAEDNSLEGYAAGETKGRTELSYSYATTNDFKKFPPSVYQNAQKLKTVYHYGKGICEQGSSRSYTFSVYIPSSFPDNATTIFAQWHGAPSRTLVATPEGEIKTLSIEEFLALYDRMIFKKNIAHDKVEKKDKDGKITYVAGKPNGWKVEQGGYPTLAFGFSKGYFYIKANSDRQWLTDKADRNNANPENSEVMKPYSSEYKTSTIAYKMPFAQFPKDCWITFDVAIDWTKYGKEANTILKPGKLDVMMTYTKNKKPQKAHIVNQQEILIGRNDDDGYYFKFGIYRVGNSTVPVTYNLSGYSETAR
modifications: recombinant, without leader sequence
In the case of B2, the K0.5 in data set [1] (Table 4 second K0.5 column) and in data set [1] (setting [5]) was 270 µM throughout. In data set [2], the Kcat stood at 92 s⁻¹. In data set [2], the Km stood at 3940 nM. In addition, the values for the NaCl in data set [3] and in data set [3] (listed as wild-type r-heparinase I) were 482 ± 3 mM and “about 482 mM”, respectively. In data set [4], the Kd was found to be 206 µM.

B3: E207A/D210A/D212A: heparinase I CB-1 triple mutant (protein, UniProt Q05819 22-384, looked up, variant E207A D210A D212A)
Heparin lyase I: QQKKSGNIPYRVNVQADSAKQKAIIDNKWVAVGINKPYALQYDDKLRFNGKPSYRFELKAEDNSLEGYAAGETKGRTELSYSYATTNDFKKFPPSVYQNAQKLKTVYHYGKGICEQGSSRSYTFSVYIPSSFPDNATTIFAQWHGAPSRTLVATPEGEIKTLSIEEFLALYDRMIFKKNIAHDKVAKKAKAGKITYVAGKPNGWKVEQGGYPTLAFGFSKGYFYIKANSDRQWLTDKADRNNANPENSEVMKPYSSEYKTSTIAYKMPFAQFPKDCWITFDVAIDWTKYGKEANTILKPGKLDVMMTYTKNKKPQKAHIVNQQEILIGRNDDDGYYFKFGIYRVGNSTVPVTYNLSGYSETAR
Consider B3, for which the K0.5 in data set [1] (Table 4 second K0.5 column) and in data set [1] (setting [5]) was 810 µM in each case. The Kcat in data set [2] amounted to 25 s⁻¹. In addition, the Km in data set [2] was 730 nM. In addition, the NaCl in data set [3] came out at 540 mM. Also, the Kd in data set [4] worked out at 151 µM.

B4: G378A/Y379A: heparinase I CB-2 double mutant (protein, UniProt Q05819 22-384, looked up, variant G378A Y379A)
Heparin lyase I: QQKKSGNIPYRVNVQADSAKQKAIIDNKWVAVGINKPYALQYDDKLRFNGKPSYRFELKAEDNSLEGYAAGETKGRTELSYSYATTNDFKKFPPSVYQNAQKLKTVYHYGKGICEQGSSRSYTFSVYIPSSFPDNATTIFAQWHGAPSRTLVATPEGEIKTLSIEEFLALYDRMIFKKNIAHDKVEKKDKDGKITYVAGKPNGWKVEQGGYPTLAFGFSKGYFYIKANSDRQWLTDKADRNNANPENSEVMKPYSSEYKTSTIAYKMPFAQFPKDCWITFDVAIDWTKYGKEANTILKPGKLDVMMTYTKNKKPQKAHIVNQQEILIGRNDDDGYYFKFGIYRVGNSTVPVTYNLSAASETAR
Regarding B4, in data set [1] (Table 4 second K0.5 column), the K0.5 was 90 µM. In data set [1] (setting [5]), the K0.5 came out at 90 µM. For the same molecule, in data set [2], the Kcat is 9 s⁻¹ and the Km stood at 310 nM. In data set [3], the “elution salt concentration / heparin binding relative to wild-type r-heparinase I, in words” value was “comparable to wild-type r-heparinase I” and the NaCl worked out at 489 mM. The Kd in data set [4] is 136 µM.

B5: N375A: heparinase I CB-2 mutant, asparagine 375 changed to alanine (protein, UniProt Q05819 22-384, looked up, variant N375A)
Heparin lyase I: QQKKSGNIPYRVNVQADSAKQKAIIDNKWVAVGINKPYALQYDDKLRFNGKPSYRFELKAEDNSLEGYAAGETKGRTELSYSYATTNDFKKFPPSVYQNAQKLKTVYHYGKGICEQGSSRSYTFSVYIPSSFPDNATTIFAQWHGAPSRTLVATPEGEIKTLSIEEFLALYDRMIFKKNIAHDKVEKKDKDGKITYVAGKPNGWKVEQGGYPTLAFGFSKGYFYIKANSDRQWLTDKADRNNANPENSEVMKPYSSEYKTSTIAYKMPFAQFPKDCWITFDVAIDWTKYGKEANTILKPGKLDVMMTYTKNKKPQKAHIVNQQEILIGRNDDDGYYFKFGIYRVGNSTVPVTYALSGYSETAR
In the case of B5, in data set [1] (Table 4 second K0.5 column), the K0.5 was 60 µM. The K0.5 in data set [1] (setting [5]) came out at 60 µM. For the same molecule, in data set [2], the “decrease in Kcat” value is reported as “about 10 fold”, the Kcat came out at 10 s⁻¹ and the Km was 880 nM. In data set [2] (listed as N375), the “decrease in Kcat” value was “more than 9 fold”. Also, in data set [3], the “elution salt concentration / heparin binding relative to wild-type r-heparinase I, in words” value is reported as “comparable to wild-type r-heparinase I” and the NaCl worked out at 490 mM. Besides, the Kd in data set [4] amounted to 216 µM.

These data come from patent US7560106B2, “Rationally designed heparinases derived from heparinase I and II and methods of sequencing therewith” (Massachusetts Institute of Technology, priority 1998, dated 2009).
